Results taken from US5817516, “Methods for proliferating and differentiating B cells with high density membrane CD40 ligand” (Boehringer Ingelheim Pharmaceuticals, Inc., dated 1998).

Target: CD40 on human B cells (human, UniProt P25942)
Experiment: cell-based or functional assay

B1: high density, membrane bound mouse CD40 ligand (ligand)
chain: MIETYSQPSPRSVATGLPASMKIFMYLLTVFLITQMIGSVLFAVYLHRRLDKVEEEVNLHEDFVFIKKLKRCNKGEGSLSLLNCEEMRRQFEDLVKDITLNKEEKKENSFEMQRGDEDPQIAAHVVSEANSNAASVLQWAKKGYYTMKSNLVMLENGKQLTVKREGLYYVYTQVTFCSNREPSSQRPFIVGLWLKPSSGSERILLKAANTHSSSQLCEQQSVHLGGVFELQAGASVFVNVTEASQVIHRVGFSSFGLLKL
expansion of human B cells grown with hdmb CD40 ligand as described for the mouse cells: ~100 fold
